Assay results from US20130005646A1 (Novo Nordisk, published 2013).
Starred links: 1 amine or outer side, 2 acyl side, 3 side chain; linkers in the order of their positions; H or OH if unused. Positions of bridges follow the written chain, without caps; N, C: chain ends. *: point of attachment. C20 diacid = O=C(O)CCCCCCCCCCCCCCCCCCC(=O)*; 19‑carboxyheptadecanoyl = not defined here; γGlu = O=C(O)[C@H](CCC(=O)[*:2])N[*:1]; AEEA = NCCOCCOCC(=O)O

How the values were obtained:
[1] = biological target: T1, human calcitonin (a) receptor (human, UniProt P30988 25-474); test: cell-based or functional assay
T1 sequence (looked up): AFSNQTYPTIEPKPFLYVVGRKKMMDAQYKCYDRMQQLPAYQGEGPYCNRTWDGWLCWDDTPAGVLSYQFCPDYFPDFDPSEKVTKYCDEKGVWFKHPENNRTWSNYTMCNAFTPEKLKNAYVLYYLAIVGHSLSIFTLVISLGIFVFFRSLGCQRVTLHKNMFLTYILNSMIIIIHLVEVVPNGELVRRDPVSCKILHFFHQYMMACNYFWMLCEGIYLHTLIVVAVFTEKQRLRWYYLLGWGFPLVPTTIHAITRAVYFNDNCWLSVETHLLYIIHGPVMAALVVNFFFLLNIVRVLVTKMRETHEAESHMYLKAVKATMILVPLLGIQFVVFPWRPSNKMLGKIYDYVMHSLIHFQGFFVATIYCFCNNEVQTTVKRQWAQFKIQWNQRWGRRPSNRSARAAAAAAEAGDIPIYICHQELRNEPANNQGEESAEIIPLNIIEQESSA

[2] = biological target: T2, human amylin 3(a) receptor (human calcitonin receptor + RAMP-3) (human, UniProt P30988 25-474; O60896 24-148); test: cell-based or functional assay
T2 sequence (looked up) 1: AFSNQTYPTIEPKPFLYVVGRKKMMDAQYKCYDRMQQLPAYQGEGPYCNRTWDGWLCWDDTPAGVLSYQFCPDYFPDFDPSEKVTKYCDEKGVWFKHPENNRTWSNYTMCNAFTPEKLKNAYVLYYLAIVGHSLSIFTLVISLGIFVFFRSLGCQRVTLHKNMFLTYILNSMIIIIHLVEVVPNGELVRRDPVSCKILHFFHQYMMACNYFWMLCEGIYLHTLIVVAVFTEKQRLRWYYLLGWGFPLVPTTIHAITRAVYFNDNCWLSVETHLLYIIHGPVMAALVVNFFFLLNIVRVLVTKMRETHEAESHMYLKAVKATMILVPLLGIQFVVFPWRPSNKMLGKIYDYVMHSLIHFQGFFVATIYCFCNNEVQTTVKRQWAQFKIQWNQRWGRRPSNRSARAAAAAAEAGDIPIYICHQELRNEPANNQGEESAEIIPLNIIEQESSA
T2 sequence (looked up) 2: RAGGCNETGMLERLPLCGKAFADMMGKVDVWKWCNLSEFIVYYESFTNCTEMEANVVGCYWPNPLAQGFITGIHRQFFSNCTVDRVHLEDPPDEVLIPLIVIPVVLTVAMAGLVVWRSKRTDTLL

Binder	CTa receptor human EC50 [1] [pM]	Amylin receptor human EC50 [2] [pM]
{C20 diacid-γGlu}-KCNTATCATQRLAEFLVRSSQNFGAPLSSTNVGSNTP-NH2 (disulfide 2-7; SMILES CC(C)C[C@H](NC(=O)[C@H](CCCNC(=N)N)NC(=O)[C@H](CCC(N)=O)NC(=O)[C@@H](NC(=O)[C@H](C)NC(=O)[C@@H]1CSSC[C@H](NC(=O)[C@H](CCCCN)NC(=O)CC[C@H](NC(=O)CCCCCCCCCCCCCCCCCCC(=O)O)C(=O)O)C(=O)N[C@@H](CC(N)=O)C(=O)N[C@@H]([C@@H](C)O)C(=O)N[C@@H](C)C(=O)N[C@@H]([C@@H](C)O)C(=O)N1)[C@@H](C)O)C(=O)N[C@@H](C)C(=O)N[C@@H](CCC(=O)O)C(=O)N[C@@H](Cc1ccccc1)C(=O)N[C@@H](CC(C)C)C(=O)N[C@H](C(=O)N[C@@H](CCCNC(=N)N)C(=O)N[C@@H](CO)C(=O)N[C@@H](CO)C(=O)N[C@@H](CCC(N)=O)C(=O)N[C@@H](CC(N)=O)C(=O)N[C@@H](Cc1ccccc1)C(=O)NCC(=O)N[C@@H](C)C(=O)N1CCC[C@H]1C(=O)N[C@@H](CC(C)C)C(=O)N[C@@H](CO)C(=O)N[C@@H](CO)C(=O)N[C@H](C(=O)N[C@@H](CC(N)=O)C(=O)N[C@H](C(=O)NCC(=O)N[C@@H](CO)C(=O)N[C@@H](CC(N)=O)C(=O)N[C@H](C(=O)N1CCC[C@H]1C(N)=O)[C@@H](C)O)C(C)C)[C@@H](C)O)C(C)C)	34	39
{C20 diacid-γGlu}-HCNTATCETQRLAEFLHRSSNNFGPILPPTNVGSNTY-NH2 (disulfide 2-7; SMILES CC[C@H](C)[C@H](NC(=O)[C@@H]1CCCN1C(=O)CNC(=O)[C@H](Cc1ccccc1)NC(=O)[C@H](CC(N)=O)NC(=O)[C@H](CC(N)=O)NC(=O)[C@H](CO)NC(=O)[C@H](CO)NC(=O)[C@H](CCCNC(=N)N)NC(=O)[C@H](Cc1c[nH]cn1)NC(=O)[C@H](CC(C)C)NC(=O)[C@H](Cc1ccccc1)NC(=O)[C@H](CCC(=O)O)NC(=O)[C@H](C)NC(=O)[C@H](CC(C)C)NC(=O)[C@H](CCCNC(=N)N)NC(=O)[C@H](CCC(N)=O)NC(=O)[C@@H](NC(=O)[C@H](CCC(=O)O)NC(=O)[C@@H]1CSSC[C@H](NC(=O)[C@H](Cc2c[nH]cn2)NC(=O)CC[C@H](NC(=O)CCCCCCCCCCCCCCCCCCC(=O)O)C(=O)O)C(=O)N[C@@H](CC(N)=O)C(=O)N[C@@H]([C@@H](C)O)C(=O)N[C@@H](C)C(=O)N[C@@H]([C@@H](C)O)C(=O)N1)[C@@H](C)O)C(=O)N[C@@H](CC(C)C)C(=O)N1CCC[C@H]1C(=O)N1CCC[C@H]1C(=O)N[C@H](C(=O)N[C@@H](CC(N)=O)C(=O)N[C@H](C(=O)NCC(=O)N[C@@H](CO)C(=O)N[C@@H](CC(N)=O)C(=O)N[C@H](C(=O)N[C@@H](Cc1ccc(O)cc1)C(N)=O)[C@@H](C)O)C(C)C)[C@@H](C)O)	4300	602
{19‑carboxyheptadecanoyl-γGlu-AEEA-AEEA}-KCNTATCATQRLAEFLHHSSKNFGPILPPTNVGSNTP-NH2 (disulfide 2-7; reading uncertain; also: printed as N-alpha-[2-(2-{2-[2-(2-{2-[(S)-4-Carboxy-4-(19-carboxyheptadecanoylamino)butyrylamino]ethoxy}ethoxy)acetylamino]ethoxy}ethoxy)acetyl]-[Glu14,His17,Lys21,Pro37]-pramlintide)	85	71
{C20 diacid-γGlu}-ERECNTATCATQRLAEFLRHSSQQFGPILPPTQVGSQTP-NH2 (disulfide 4-9; SMILES CC[C@H](C)[C@H](NC(=O)[C@@H]1CCCN1C(=O)CNC(=O)[C@H](Cc1ccccc1)NC(=O)[C@H](CCC(N)=O)NC(=O)[C@H](CCC(N)=O)NC(=O)[C@H](CO)NC(=O)[C@H](CO)NC(=O)[C@H](Cc1c[nH]cn1)NC(=O)[C@H](CCCNC(=N)N)NC(=O)[C@H](CC(C)C)NC(=O)[C@H](Cc1ccccc1)NC(=O)[C@H](CCC(=O)O)NC(=O)[C@H](C)NC(=O)[C@H](CC(C)C)NC(=O)[C@H](CCCNC(=N)N)NC(=O)[C@H](CCC(N)=O)NC(=O)[C@@H](NC(=O)[C@H](C)NC(=O)[C@@H]1CSSC[C@H](NC(=O)[C@H](CCC(=O)O)NC(=O)[C@H](CCCNC(=N)N)NC(=O)[C@H](CCC(=O)O)NC(=O)CC[C@H](NC(=O)CCCCCCCCCCCCCCCCCCC(=O)O)C(=O)O)C(=O)N[C@@H](CC(N)=O)C(=O)N[C@@H]([C@@H](C)O)C(=O)N[C@@H](C)C(=O)N[C@@H]([C@@H](C)O)C(=O)N1)[C@@H](C)O)C(=O)N[C@@H](CC(C)C)C(=O)N1CCC[C@H]1C(=O)N1CCC[C@H]1C(=O)N[C@H](C(=O)N[C@@H](CCC(N)=O)C(=O)N[C@H](C(=O)NCC(=O)N[C@@H](CO)C(=O)N[C@@H](CCC(N)=O)C(=O)N[C@H](C(=O)N1CCC[C@H]1C(N)=O)[C@@H](C)O)C(C)C)[C@@H](C)O)	3570	1710
{C20 diacid-γGlu}-ERECNTATCATQRLAEFLRHSSQNFGPILPPTQVGSQTP-NH2 (disulfide 4-9; SMILES CC[C@H](C)[C@H](NC(=O)[C@@H]1CCCN1C(=O)CNC(=O)[C@H](Cc1ccccc1)NC(=O)[C@H](CC(N)=O)NC(=O)[C@H](CCC(N)=O)NC(=O)[C@H](CO)NC(=O)[C@H](CO)NC(=O)[C@H](Cc1c[nH]cn1)NC(=O)[C@H](CCCNC(=N)N)NC(=O)[C@H](CC(C)C)NC(=O)[C@H](Cc1ccccc1)NC(=O)[C@H](CCC(=O)O)NC(=O)[C@H](C)NC(=O)[C@H](CC(C)C)NC(=O)[C@H](CCCNC(=N)N)NC(=O)[C@H](CCC(N)=O)NC(=O)[C@@H](NC(=O)[C@H](C)NC(=O)[C@@H]1CSSC[C@H](NC(=O)[C@H](CCC(=O)O)NC(=O)[C@H](CCCNC(=N)N)NC(=O)[C@H](CCC(=O)O)NC(=O)CC[C@H](NC(=O)CCCCCCCCCCCCCCCCCCC(=O)O)C(=O)O)C(=O)N[C@@H](CC(N)=O)C(=O)N[C@@H]([C@@H](C)O)C(=O)N[C@@H](C)C(=O)N[C@@H]([C@@H](C)O)C(=O)N1)[C@@H](C)O)C(=O)N[C@@H](CC(C)C)C(=O)N1CCC[C@H]1C(=O)N1CCC[C@H]1C(=O)N[C@H](C(=O)N[C@@H](CCC(N)=O)C(=O)N[C@H](C(=O)NCC(=O)N[C@@H](CO)C(=O)N[C@@H](CCC(N)=O)C(=O)N[C@H](C(=O)N1CCC[C@H]1C(N)=O)[C@@H](C)O)C(C)C)[C@@H](C)O)	3710	1060
{19‑carboxyheptadecanoyl-γGlu-AEEA-AEEA}-KCNTATCATQRLAEFLHHSSENFGPILPPTNVGSNTP-NH2 (disulfide 2-7; reading uncertain; also: printed as N-alpha-[2-(2-{2-[2-(2-{2-[(S)-4-Carboxy-4-(19-carboxyheptadecanoylamino)butyrylamino]ethoxy}ethoxy)acetylamino]ethoxy}ethoxy)acetyl]-[Glu14,His17,Glu21,Pro37]-pramlintide)	113	203
{C20 diacid-γGlu}-KCNTATCATQRLAEFLVRSSSSFGPILSSTDVGSDTP-NH2 (disulfide 2-7; SMILES CC[C@H](C)[C@H](NC(=O)[C@@H]1CCCN1C(=O)CNC(=O)[C@H](Cc1ccccc1)NC(=O)[C@H](CO)NC(=O)[C@H](CO)NC(=O)[C@H](CO)NC(=O)[C@H](CO)NC(=O)[C@H](CCCNC(=N)N)NC(=O)[C@@H](NC(=O)[C@H](CC(C)C)NC(=O)[C@H](Cc1ccccc1)NC(=O)[C@H](CCC(=O)O)NC(=O)[C@H](C)NC(=O)[C@H](CC(C)C)NC(=O)[C@H](CCCNC(=N)N)NC(=O)[C@H](CCC(N)=O)NC(=O)[C@@H](NC(=O)[C@H](C)NC(=O)[C@@H]1CSSC[C@H](NC(=O)[C@H](CCCCN)NC(=O)CC[C@H](NC(=O)CCCCCCCCCCCCCCCCCCC(=O)O)C(=O)O)C(=O)N[C@@H](CC(N)=O)C(=O)N[C@@H]([C@@H](C)O)C(=O)N[C@@H](C)C(=O)N[C@@H]([C@@H](C)O)C(=O)N1)[C@@H](C)O)C(C)C)C(=O)N[C@@H](CC(C)C)C(=O)N[C@@H](CO)C(=O)N[C@@H](CO)C(=O)N[C@H](C(=O)N[C@@H](CC(=O)O)C(=O)N[C@H](C(=O)NCC(=O)N[C@@H](CO)C(=O)N[C@@H](CC(=O)O)C(=O)N[C@H](C(=O)N1CCC[C@H]1C(N)=O)[C@@H](C)O)C(C)C)[C@@H](C)O)	76	90
